Data as given in the supplement of paper PMC9732359.
± gives the uncertainty stated by the source.

Experiment: protein stability index of a GFP-peptide fusion (yeast GPS) (PSI 1-4); higher = more stable; sorted into four equal gates, so the index is relative within each strain
How it was run: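 Tiled 17-residue yeast protein peptides were fused downstream of GFP in a plasmid that also expresses Cherry, and the pooled library was carried in yeast. Mid-log cultures in leucine-free medium were sorted into four equal gates by GFP/Cherry fluorescence ratio, and plasmids from each gate were PCR-amplified and Illumina-sequenced, with reads assigned to strains by barcodes. The protein stability index for each peptide was each gate's read frequency times its gate number, summed.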

Sequence | protein stability index (doa10∆) | protein stability index (pdr5∆) | protein stability index (san1∆) | protein stability index (ubr1∆)
LPEPTEGFAADDEPTTP [FAS1] | 3 ± 0.095 | 2.65 ± 0.099 | 3.35 ± 0.15 | 2.92 ± 0.065
TATGAASKSGKLTQKLV [CYT1] | 1.64 ± 0.092 | 1.62 ± 0.078 | 2.69 ± 0.11 | 1.83 ± 0.063
RLTVSARDAPTKISTLA [QCR2] | 3.2 ± 0.096 | 3.17 ± 0.069 | 3.04 ± 0.066 | 3.19 ± 0.055
DETYKGVEEVEGEYELT [RPL5] | 3.21 ± 0.16 | 3.43 ± 0.15 | 3.16 ± 0.23 | 2.82 ± 0.27
RKVVKPSSLNSDKIPYV [SRB4] | 2.74 ± 0.23 | 3.23 ± 0.13 | 3.06 ± 0.18 | 3.23 ± 0.12
SGFYTFSLLDHHYRPDM [PRE1] | – | 3.1 ± 0.28 | 2.99 ± 0.13 | –
RLGSFTRAKAKVEEMNN [RPL36A] | – | 2.61 ± 0.2 | 2.85 ± 0.19 | 2.87 ± 0.28
KLLASTEENKANTNSVT [YIL149C/MLP2] | 3.32 ± 0.083 | 3.24 ± 0.066 | 3.25 ± 0.056 | 3.32 ± 0.036
RNSFIRDMIMKRNSDKV [ITC1] | 2.84 ± 0.16 | 2.86 ± 0.14 | 2.29 ± 0.16 | 2.83 ± 0.2
NECIEERVPKTQLDKLR [SMB1] | 3.1 ± 0.051 | 3.07 ± 0.062 | 3.136 ± 0.03 | 3.24 ± 0.046
FKVARELKTEAAVLSNL [ITC1] | 2.83 ± 0.19 | 2.66 ± 0.11 | 2.9 ± 0.089 | 2.86 ± 0.061
GKTTSCTKLAVYYSKRG [SRP54] | – | 2.76 ± 0.19 | 2.18 ± 0.22 | 2.51 ± 0.098
KGLLIWRLLFIDKFIMV [GRR1] | 1.43 ± 0.062 | 1.35 ± 0.048 | 1.41 ± 0.089 | 1.5 ± 0.052
THAVGNNCEDFVSRPDR [FAS1] | 3.16 ± 0.12 | 3.08 ± 0.18 | 2.97 ± 0.072 | 3.04 ± 0.087
DATTWRYSMSEQFPFYL [IRR1] | 3.09 ± 0.098 | 2.94 ± 0.066 | 3.06 ± 0.063 | 3.07 ± 0.049
PIVLLNTLRKCYPQFAE [UBP6] | 1.25 ± 0.11 | 1.26 ± 0.073 | 1.14 ± 0.16 | 1.19 ± 0.12
PLVQADLYEQIGIDPPR [RPT3] | 2.48 ± 0.074 | 2.83 ± 0.1 | 2.63 ± 0.066 | 2.83 ± 0.081
FNIIREFRSAAGQLALD [YDL116W/NUP84] | 2.92 ± 0.12 | 3.16 ± 0.12 | 2.94 ± 0.076 | 3.25 ± 0.087
ETAQAINGWELTKAQKY [RPL17A] | 3.27 ± 0.055 | 3.35 ± 0.049 | 3.18 ± 0.034 | 3.28 ± 0.043
PRYFSEAINGFKDETIS [SIR3] | 2.77 ± 0.057 | 2.87 ± 0.054 | 2.46 ± 0.11 | 2.84 ± 0.048
NTGPSTGGLFGAKPAGS [YGL172W/NUP49] | 3.43 ± 0.12 | 3.32 ± 0.11 | 2.67 ± 0.17 | –
GNPLLYDGVERVSLQDI [QCR2] | 1.73 ± 0.23 | 2.18 ± 0.17 | 2.03 ± 0.17 | 2.19 ± 0.17
MAHENVWFSHPRRYGKG [RPS29A] | 3.39 ± 0.24 | 2.95 ± 0.17 | 3.18 ± 0.14 | 3.18 ± 0.23
ARVLSNYLRQQCNYSSL [PRE5] | 2.71 ± 0.17 | 2.96 ± 0.11 | – | 2.78 ± 0.087
SKFTKIPPTFDKGAVGP [MED4] | 3.17 ± 0.072 | 3.29 ± 0.079 | 3.33 ± 0.076 | 3.08 ± 0.11
FSFGQNNNNTNTQPSAS [YGR119C/NUP57] | 2.87 ± 0.071 | 2.61 ± 0.069 | 2.82 ± 0.06 | 2.78 ± 0.043

Sequence | protein stability index (doa10∆) | protein stability index (pdr5∆) | protein stability index (san1∆) | protein stability index (ubr1∆)
SDAKEQHQSLSRSSSKN [ESC2] | 2.85 ± 0.14 | 3.21 ± 0.14 | 3.26 ± 0.074 | 3.27 ± 0.11
LFLNTGCLSVLYQSKGR [SRP68] | 1.66 ± 0.054 | 1.55 ± 0.069 | 1.48 ± 0.12 | 1.25 ± 0.059
LDIINPGSVEEVDKSKL [YDL116W/NUP84] | 2.94 ± 0.1 | 3.44 ± 0.11 | 3.24 ± 0.13 | 3.53 ± 0.087
LSIPGKSTPEGTLWAHV [SNU114] | 2.91 ± 0.065 | 3.09 ± 0.064 | 2.9 ± 0.059 | 3.03 ± 0.04
SRNNTLNVTPSKRPQLG [SIR4] | 2.96 ± 0.1 | 2.97 ± 0.093 | 2.8 ± 0.096 | 2.85 ± 0.073
GRGLWNPSYPGMMSTTG [YJL039C/NUP192] | 2.99 ± 0.092 | 3.12 ± 0.053 | 3.14 ± 0.074 | 3.1 ± 0.097
TSQKMTSTVNRLNTVTR [MCD1] | 3.16 ± 0.094 | 2.94 ± 0.18 | 3.57 ± 0.18 | 3.09 ± 0.098
FEYCRIDGSTSHEERIE [ISW2] | 2.44 ± 0.047 | 2.23 ± 0.052 | 2.01 ± 0.061 | 2.49 ± 0.05
VPKSIAKTLTYPEVVTP [RPO21] | 2.51 ± 0.05 | 2.76 ± 0.044 | 2.39 ± 0.039 | 2.62 ± 0.047
QVSKKLSSIEASLKIKN [SMC3] | 1.67 ± 0.069 | 1.7 ± 0.085 | 2.44 ± 0.12 | 2.27 ± 0.08
NQEDEKNLQRESCEDIL [RTT102] | – | – | – | 3.17 ± 0.2
AENLLQLKTGLAAIVST [YGL172W/NUP49] | – | 3.3 ± 0.19 | 2.99 ± 0.087 | 2.5 ± 0.2
LIECLLSKVAALSGNEG [RPB2] | 1.47 ± 0.079 | 1.74 ± 0.098 | 1.89 ± 0.11 | 1.27 ± 0.08
YKVLKQTHPDTGISQKS [HTB1] | 2.42 ± 0.077 | 2.51 ± 0.074 | 2.21 ± 0.081 | 1.68 ± 0.04
LLAHKVADEEANIELTW [RPC37] | 1.49 ± 0.074 | – | 1.59 ± 0.14 | 1.74 ± 0.1
PVKQSFIRKYINQKALR [GAL11] | 1.61 ± 0.12 | 1.59 ± 0.07 | 1.61 ± 0.099 | 1.77 ± 0.08
KVMNNSFKLCTLLIAIR [YML103C/NUP188] | 1.47 ± 0.063 | 1.69 ± 0.087 | 1.96 ± 0.15 | 1.63 ± 0.09
IVTEQPSAEIREAYIEN [SWP82] | 2.47 ± 0.062 | 2.88 ± 0.062 | 2.74 ± 0.073 | 2.2 ± 0.065
AFPNASKKNRPTLQVGD [RRP40] | 2.09 ± 0.19 | 2.75 ± 0.11 | 2.78 ± 0.16 | 2.99 ± 0.17
TNAFLDSLTRAVKDQQK [SNF2] | 2.46 ± 0.072 | 2.47 ± 0.071 | 2.68 ± 0.049 | 2.56 ± 0.046
LRDRNFSATGNFGFGID [RPL11A] | 3.23 ± 0.069 | 3.28 ± 0.072 | 2.93 ± 0.1 | 3.25 ± 0.053
YNYCVNKSRSSGHFSTD [CDC53] | 2.8 ± 0.056 | 2.54 ± 0.046 | 2.23 ± 0.049 | 2.54 ± 0.036
LAKLVSTIDANFADKYD [RPL8A] | 2.41 ± 0.14 | 2.8 ± 0.14 | 2.8 ± 0.12 | 1.89 ± 0.069
QDKMFVSNPIRKVFKPS [FAS1] | 3.01 ± 0.058 | 2.62 ± 0.054 | 2.03 ± 0.1 | 2.68 ± 0.06
KELQLEKESVEKQHENA [SMC3] | 3.02 ± 0.14 | 3.32 ± 0.099 | 2.85 ± 0.071 | 3.15 ± 0.054
